Test results from PMC7376557.

Biological target: SasC aggregation domain (S. aureus surface protein C), His-tagged (S. aureus strain N315)
Assay: SEC-MALS; FPLC-MALS (Wyatt Technology) of the purified His-tagged SasC aggregation domain; superpolymer of about 1,610 kDa against 41.5 kDa for the domain

Substance “SasC aggregation domain (S. aureus surface protein C), His-tagged (domain or fragment)” has a stoichiometry N of over 35.
